From PMC5935755

biological target: ClpXP (ClpX ΔN-ter hexamer with ClpP tetradecamer) (UniProt P0A6H1)

KM of ClpXP-mediated proteolysis (Michaelis-Menten analysis, loss of GFP fluorescence; 0.3 µM ClpX6, 0.9 µM ClpP14, 30 °C) [µM] | Substance
0.64 | GFP-BAP1 (UCH domain, residues 1-238, ssrA-tagged) (from UniProt Q92560 1-238)
3.67 | GFP-UCHL1 (ssrA-tagged)
4.47 | GFP-UCHL1_(I93M) (ssrA-tagged)
2.59 | GFP-UCHL3 (ssrA-tagged)
1.85 | GFP-UCHL5 (UCH domain, residues 1-240, ssrA-tagged) (from UniProt Q9Y5K5 1-240)
